Measurements taken from patent US20150353645A1.

B1: human anti-GD2 monoclonal antibody 2E12 (antibody, human IgM, V domains shown)
VH: QVQLLESGAEVKKPGASVKVSCKASGYTFTSYAMHWVRQAPGQRLEWMGWINAGNGNTIYSQKFQARVTITRDTSASTAYMELSSLRSEDTAVYYCARWVGGVASYFDYWGQGTLVTVSS
VL: EIVLTQSPLSLSVTPGEPASISCRSSQSLLHRNGYNYFDWYLQQPGQSPQLLIYLGSNRASGVPDRFSGSGSGTDFTLKISRVEAEDVGVYYCMQALQTPYTFGQGTKLEIK
B2: human anti-GD2 monoclonal antibody 31F9 (antibody, human IgG1, V domains shown)
VH: QVQLLESGAEVKKPGASVKVSCEASGYTFTSSDINWVRQATGQGLEWMGWMNPNSGNTGYAQKFQGRVTMTRNTSISTAYMELSSLRSEDTAVYYCARERPRRRGGGFDIWGQGTMVTVSS
VL: DIRMTQSPSSLSASVGDRVTITCRASQGISNYLAWYQQKPGKVPKFLIYAASTLQSGVPSRFSGSGSGTDFTLTISSLQPEDVATYYCQKYNSAPWTFGQGTKVEIK

What was measured:
[1] = target: MUC1 peptide-biotin (cat#353951, American Peptide Company); experiment: ELISA at 2 ug/ml mAb (IgM), MUC1 peptide-biotin on NeutrAvidin; PBS background 0.12
[2] = target: MUC1 peptide-biotin (cat#353951, American Peptide Company); experiment: ELISA at 2 ug/ml mAb, MUC1 peptide-biotin on NeutrAvidin; PBS background 0.08

Binder | ELISA signal (unit not given) [1] | ELISA signal (unit not given) [2]
B1 | 0.09 | 
B2 |  | 0.08
